± gives the uncertainty stated by the source.
B1: Unconventional myosin-Ie, residues 1051 to 1108; numbered along this chain, Q12965 (parent)
chain: PQVPQCKALYAYDAQDTDELSFNANDIIDIIKEDPSGWWTGRLRGKQGLFPNNYVTKI

Variants of: B1
Test: abundance fitness (aPCA) (normalised: wild type 0, dead -1); higher = more abundant; growth selection in yeast, the domain comes from the species named
Details: Homo sapiens

Row | Variant | abundance fitness
1 | PQVPQCKALYAYDAQDTDELSFNANDIIDITKEDPSGWWTGRLRGKQGLFPNNYVTKI | -0.2 ± 0.032
2 | PQVPQCKALYAYDAQDTDELSFNANDIIDICKEDPSGWWTGRLRGKQGLFPNNYVTKI | -0.089 ± 0.064
3 | PQVPQCKALYAYDAQDTDELSFNANDIIDIVKEDPSGWWTGRLRGKQGLFPNNYVTKI | -0.054 ± 0.034
4 | PQVPQCKALYAYDAQDTDELSFNANDIIDILKEDPSGWWTGRLRGKQGLFPNNYVTKI | 0.001 ± 0.042
5 | PQVPQCKALYAYDAQDTDELSFNANDIIDIMKEDPSGWWTGRLRGKQGLFPNNYVTKI | -0.051 ± 0.078
6 | PQVPQCKALYAYDAQDTDELSFNANDIIDIIKEDKSGWWTGRLRGKQGLFPNNYVTKI | -0.027 ± 0.049
7 | PQVPQCKALYAYDAQDTDELSFNANDIIDIIKEDGSGWWTGRLRGKQGLFPNNYVTKI | -0.021 ± 0.041
8 | PQVPQCKALYAYDAQDTDELSFNANDIIDIIKEDCSGWWTGRLRGKQGLFPNNYVTKI | -0.066 ± 0.061
9 | PQVPQCKALYAYDAQDTDELSFNANDIIDIIKEDASGWWTGRLRGKQGLFPNNYVTKI | -0.07 ± 0.047
10 | PQVPQCKALYAYDAQDTDELSFNANDIIDIIKEDLSGWWTGRLRGKQGLFPNNYVTKI | -0.29 ± 0.065
11 | PQVPQCKALYAYDAQDTDELSFNANDIIDIIKEDISGWWTGRLRGKQGLFPNNYVTKI | -0.144 ± 0.081
12 | PQVPQCKALYAYDAQDTDELSFNANDIIDIIKEDFSGWWTGRLRGKQGLFPNNYVTKI | -0.329 ± 0.12
13 | PQVPQCKALYAYDAQDTDELSFNANDIIDIIKEDHSGWWTGRLRGKQGLFPNNYVTKI | -0.623 ± 0.24
14 | PQVPQCKALYAYDAQDTDELSFNANDIIDIIKEDDSGWWTGRLRGKQGLFPNNYVTKI | -0.023 ± 0.051
15 | PQVPQCKALYAYDAQDTDELSFNANDIIDIIKEPPSGWWTGRLRGKQGLFPNNYVTKI | -0.15 ± 0.043
16 | PQVPQCKALYAYDAQDTDELSFNANDIIDIIKEGPSGWWTGRLRGKQGLFPNNYVTKI | -0.118 ± 0.063
17 | PQVPQCKALYAYDAQDTDELSFNANDIIDIIKEAPSGWWTGRLRGKQGLFPNNYVTKI | -0.031 ± 0.051
18 | PQVPQCKALYAYDAQDTDELSFNANDIIDIIKESPSGWWTGRLRGKQGLFPNNYVTKI | -0.126 ± 0.044
19 | PQVPQCKALYAYDAQDTDELSFNANDIIDIIKELPSGWWTGRLRGKQGLFPNNYVTKI | -0.3 ± 0.053
20 | PQVPQCKALYAYDAQDTDELSFNANDIIDIIKEHPSGWWTGRLRGKQGLFPNNYVTKI | -0.264 ± 0.23
21 | PQVPQCKALYAYDAQDTDELSFNANDIIDIIKEQPSGWWTGRLRGKQGLFPNNYVTKI | -0.431 ± 0.092
22 | PQVPQCKALYAYDAQDTDELSFNANDIIDIIKEYPSGWWTGRLRGKQGLFPNNYVTKI | -0.27 ± 0.069
23 | PQVPQCKALYAYDAQDTDELSFNANDIIDIIKETPSGWWTGRLRGKQGLFPNNYVTKI | -0.123 ± 0.036

Row | Variant | abundance fitness
24 | PQVPQCKALYAYDAQDTDELSFNANDIIDIIKEIPSGWWTGRLRGKQGLFPNNYVTKI | -0.939 ± 0.32
25 | PQVPQCKALYAYDAQDTDELSFNANDIIDIIKEFPSGWWTGRLRGKQGLFPNNYVTKI | -0.332 ± 0.12
26 | PQVPQCKALYAYDAQDTDELSFNANDIIDIIKENPSGWWTGRLRGKQGLFPNNYVTKI | 0.014 ± 0.078
27 | PQVPQCKALYAYDAQDTDELSFNANDIIDIIKEEPSGWWTGRLRGKQGLFPNNYVTKI | 0.06 ± 0.06
28 | PQVPQCKALYAYDAQDTDELSFNANDIIDIIKERPSGWWTGRLRGKQGLFPNNYVTKI | -0.173 ± 0.053
29 | PQVPQCKALYAYDAQDTDELSFNANDIIDIIKEKPSGWWTGRLRGKQGLFPNNYVTKI | -0.445 ± 0.087
30 | PQVPQCKALYAYDAQDTDELSFNANDIIDIIHEDPSGWWTGRLRGKQGLFPNNYVTKI | 0.047 ± 0.077
31 | PQVPQCKALYAYDAQDTDELSFNANDIIDIINEDPSGWWTGRLRGKQGLFPNNYVTKI | -0.009 ± 0.073
32 | PQVPQCKALYAYDAQDTDELSFNANDIIDIICEDPSGWWTGRLRGKQGLFPNNYVTKI | -0.14 ± 0.051
33 | PQVPQCKALYAYDAQDTDELSFNANDIIDIILEDPSGWWTGRLRGKQGLFPNNYVTKI | -0.122 ± 0.038
34 | PQVPQCKALYAYDAQDTDELSFNANDIIDIIREDPSGWWTGRLRGKQGLFPNNYVTKI | -0.042 ± 0.037
35 | PQVPQCKALYAYDAQDTDELSFNANDIIDIIDEDPSGWWTGRLRGKQGLFPNNYVTKI | -0.242 ± 0.099
36 | PQVPQCKALYAYDAQDTDELSFNANDIIDIITEDPSGWWTGRLRGKQGLFPNNYVTKI | -0.173 ± 0.074
37 | PQVPQCKALYAYDAQDTDELSFNANDIIDIIGEDPSGWWTGRLRGKQGLFPNNYVTKI | -0.097 ± 0.029
38 | PQVPQCKALYAYDAQDTDELSFNANDIIDIIMEDPSGWWTGRLRGKQGLFPNNYVTKI | -0.1 ± 0.074
39 | PQVPQCKALYAYDAQDTDELSFNANDIIDIIEEDPSGWWTGRLRGKQGLFPNNYVTKI | 0.013 ± 0.064
40 | PQVPQCKALYAYDAQDTDELSFNANDIIDIIQEDPSGWWTGRLRGKQGLFPNNYVTKI | -0.139 ± 0.078
41 | PQVPQCKALYAYDAQDTDELSFNANDIIDIIYEDPSGWWTGRLRGKQGLFPNNYVTKI | -0.105 ± 0.082
42 | PQVPQCKALYAYDAQDTDELSFNANDIIDIIAEDPSGWWTGRLRGKQGLFPNNYVTKI | -0.056 ± 0.04
43 | PQVPQCKALYAYDAQDTDELSFNANDIIDIIVEDPSGWWTGRLRGKQGLFPNNYVTKI | -0.119 ± 0.04
44 | PQVPQCKALYAYDAQDTDELSFNANDIIDIIFEDPSGWWTGRLRGKQGLFPNNYVTKI | -0.373 ± 0.3
45 | PQVPQCKALYAYDAQDTDELSFNANDIIDIIWEDPSGWWTGRLRGKQGLFPNNYVTKI | -0.205 ± 0.069
46 | PQVPQCKALYAYDAQDTDELSFNANDIIDIIIEDPSGWWTGRLRGKQGLFPNNYVTKI | 0.028 ± 0.052

— the Human Domainome abundance scans (Beltran et al. 2025)
